Source: US20220125947A1

Assays:
[1] = target: Vg9/Vd2 T cell receptor expressed on SKW3_4 cells (UniProt Q99603); test: flow cytometry, dose-response binding at 37 C, SKW3_4 cells expressing Vg9/Vd2
[2] = target: Vg5/Vd2 T cell receptor expressed on SKW3 cells (UniProt A0JD36); test: flow cytometry, dose-response binding at 37 C, SKW3 cells expressing Vg5/Vd2
[3] = target: Vg9/Vd1 T cell receptor expressed on SKW3 cells (UniProt Q99603); test: flow cytometry, dose-response binding at 37 C, SKW3 cells expressing Vg9/Vd1
Vg9/Vd1 T cell receptor expressed on SKW3 cells, sequence (Q99603 21-122): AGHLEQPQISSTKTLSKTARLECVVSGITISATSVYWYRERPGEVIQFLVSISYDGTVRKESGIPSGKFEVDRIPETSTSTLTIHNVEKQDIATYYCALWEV

[4] = target: Vg5/Vd2 T cell receptor on SKW3 cells (UniProt A0JD36); test: flow cytometry, DRC binding at 37°C on SKW3 cells expressing Vg5/Vd2
Vg5/Vd2 T cell receptor on SKW3 cells, sequence (A0JD36 20-115): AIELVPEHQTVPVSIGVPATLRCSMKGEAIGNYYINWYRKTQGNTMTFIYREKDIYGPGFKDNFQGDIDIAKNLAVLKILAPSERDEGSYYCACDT

[5] = target: Vg9/Vd1 T cell receptor on SKW3 cells (UniProt Q99603); test: flow cytometry, DRC binding at 37°C on SKW3 cells expressing Vg9/Vd1
Vg9/Vd1 T cell receptor on SKW3 cells, sequence (Q99603 21-122): as the sequence (Q99603 21-122) above

[6] = target: Vg9/Vd2 T cell receptor on SKW3_4 cells (UniProt Q99603); test: flow cytometry, DRC binding at 37°C on SKW3_4 cells expressing Vg9/Vd2
Vg9/Vd2 T cell receptor on SKW3_4 cells, sequence (Q99603 21-122, chain 1 of 2): as the sequence (Q99603 21-122) above
Vg9/Vd2 T cell receptor on SKW3_4 cells, sequence (A0JD36 20-115, chain 2 of 2, further chain): as the sequence (A0JD36 20-115) above

Vg5/Vd2 T cell receptor expressed on SKW3 cells, sequence (A0JD36 20-115): as above
Vg9/Vd2 T cell receptor expressed on SKW3_4 cells, sequence (Q99603 21-122, chain 1 of 2): as the sequence (Q99603 21-122) above
Vg9/Vd2 T cell receptor expressed on SKW3_4 cells, sequence (A0JD36 20-115, chain 2 of 2, further chain): as the sequence (A0JD36 20-115) above

| Binder | Max. Activity (fold over background) [1] | Max. Activity (fold over background) [2] | Max. Activity (fold over background) [3] | Max. Activity (fold over background) [4] | Max. Activity (fold over background) [5] | Max. Activity (fold over background) [6] |
| --- | --- | --- | --- | --- | --- | --- |
| VG9B163 (antibody, human IgG1, lambda, V domains shown) VH: QVQLVQSGGGLVKPGASLKLSCAASGFTFSNHGMSWVRQTSDKRLEWVASITRGGDTTYYPDNVKGRFTISRENAKNTLYLQMSSLKSDDTALYYCTRGPLTVGYAMDYWGQGTTVTVSS VL: QLVLTQPPSVSAAPGQKVTISCSGNSSNIGHNYVSWYQQLPGTAPKLLIYDNNQRPSGIPDRFSGSKSDTSATLGITGLQTGDEADYYCGIWDSSLSIVVFGGGTKVTVLG | 57.2 | 48.9 | 10.6 | – | – | – |
| VG9B383 (antibody, human IgG1, lambda, V domains shown) VH: QVQLQESGPGLVKPSETLSLTCTVSSGSISSYYWNWIRQPAGKGLEWVGRIYTIGNTNYNPSLKSRVTMSIDTSKNQFSLNLSSVTAADTAVYFCAREGYYDSSGSFFPGAFGIWGQGTMVTVSS VL: SSELTQPASVSGSPGQSITISCTGTSNDVGSYNLVSWYQQHPGKAPKLMIYAGSKRPSGISNRFSGSKSGNTASLTISGLQAEDEADYYCCSFAGATNVVFGGGTKLTVLG | – | – | – | 284 | 1.36 | 184 |
| VG9B411 (antibody, human IgG1, kappa, V domains shown) VH: EVQLVESGGGLVKPGGSLRLSCSASGFTFSNYDMNWVRQAPGKGLEWVSSISSSSSYIYYADSVKGRFTISRDNAKNSLYLQMNSLRAEDTAVYHCARDVGVTTDYYYYGMDVWGQGTTVTVSS VL: EIVMTQSPSSVSASVGDRVTITCRASQGINSWLAWYQQDPYKAPKLLIYAASTLQSGVPSRFGGRGSGTEFTLTISSLQPEDFAVYYCQQYNNWPRTFGQGTKVDIKR | – | – | – | 2.76 | 24.9 | 19.1 |
| VG9B470 (antibody, human IgG1, kappa, V domains shown) VH: QVTLKESGPTLVKPTQTLTLTCTFSGFSLTTSGVGVGWIRQPPGKALEWLALILWNDHTIYSPSLKSRLTITKDTSKNQVVLTMTNMDPVDTAAYFCARDKWELRDAFDIWGQGTMVTVSS VL: EIVMTQSPSFLSASVGDRVTFTCRASQGISRYLAWYQQKPGRAPNLLIYVASTLQSGVPSRFSGSGSGTEFTLTISSLLPEDFATYYCQQLISYPYTFSQGTRLEIKR | – | – | – | 231 | 1.59 | 167 |
| VG9B103 (antibody, human IgG1, kappa, V domains shown) VH: EVQLVQSGAEVKKPGSSVKVSCKTSGGTFSSYAISWVRQAPGQGLEWMGGIIPIFGTATYAQKFQDRVTITADKSTSTAYMELSSLRSEDTAVFYCARGVGWGTDYYYGLDVWGQGTTVTVSS VL: ETTLTQSPLSSPVTLGQPASISCRSSQGLVHSDGNTYLSWLQQRPGQSPRLLIYKISNRFSGVPDRFSGSGAGTDFTLKISRVEAEDVGVYYCMQATHHPLTFGGGTKVEIKR | 96.4 | 237 | 1.79 | – | – | – |
| VG9B396 (antibody, human IgG1, lambda, V domains shown) VH: EVQLVESGPGLVQPSETLSLTCTVSGDSIRGYYWNWIRQPAGKGLEWIGRIFTTGNTNYNPSLKSRLTMSLDTSKNQFSLKLNSVTAADTAVYYCAREKWDSSSSALYFDFWGQGTLVTVSS VL: QSVLTQAPSVSGAPGQRVTISCTGSSSNIGADYDVKWYQQLPGTAPKLLIYGNTDRPSGVPDRFSGSKSGTSASLAITGLQAEDEADYYCQSYDSRLTGYVVFGGGTKLTVLG | – | – | – | 222 | 2.19 | 155 |
| VG9B382 (antibody, human IgG1, lambda, V domains shown) VH: QVQLQESGPGLVKPSETLSLTCTVSGDSISGYYWNYIRQPAGKGLDWIGRIFTTGNTNYNPSLKSRVTMSVDTSKNQFSLKLTSVTAADTAVYYCARERWDSSSSALYFDYWGQGTLVTVSS VL: QSVLTQPPSVSGAPGQRVTISCTGSSSNIGADYDIKWYQQLPGTAPKLLIYGNSNRPSGVPDRFSGSKSGTSVSLAITGLQAEDEADYYCQSYDSSMSGYVVFGGGTKLTVLG | – | – | – | 275 | 1.04 | 177 |

Now from value to binder:

| Max. Activity (fold over background) [1] | Max. Activity (fold over background) [2] | Max. Activity (fold over background) [3] | Max. Activity (fold over background) [4] | Max. Activity (fold over background) [5] | Max. Activity (fold over background) [6] | Binder |
| --- | --- | --- | --- | --- | --- | --- |
| 143 | 194 | 1.3 | – | – | – | VG9B203 (antibody, human IgG1, lambda, V domains shown) VH: QVQLVQSGPGLVKPSETLSLTCTVSGDSIGHYYWNWIRQPAGKGLEWIGRIYTSGSTNYNPSLKSRVTMSVDTSKNQFSLKLSSVTAADTAVYYCARSGGNFYWYFDLWGRGTLVTVSS VL: QSVLTQPPSVSAAPGQKVTISCSGSSSNIGNNYVSWYQQVPGTAPKLLIYDNNKRPSGIPDRISGSKSGTSATLGITGLQTGDEADYYCGTWDSSLSAGVFGGGTKVTVLG |
| – | – | – | 214 | 7.28 | 148 | VG9B465 (antibody, human IgG1, lambda, V domains shown) VH: QVQLQQSGPGLVKPSETLSLTCTVSGGSITSYYWNWIRQPAGKGLEWIGRIYTIGNTNYNPSLKSRVTMSIDTSKHQFSLKLSSVTGADTAVYYCAREGYYESDGSFFPGAFNIWGQGTMVTVSS VL: SSELTQPASVSGSPGQSITISCTGTSNDVGSYNLVSWYQQHPGKAPKLMIYAGSKRPSGISNRFSGSKSGNTASLTISGLQAEDEADYYCCSYAGTTNVVFGGGTKVTVLG |
| 164 | 233 | 11.6 | – | – | – | VG9B380 (antibody, human IgG1, lambda, V domains shown) VH: QVQLQESGPGLVKPSETLSLTCTVSGGSISNYYWSWIRQPAGKGLEWIGRIYPSGITSYDPSLKSRVTMSLDTSKNQFSLKLTSVTAADTAVYYCAGIMGTKGAFDIWGQGTMVTVSS VL: QSALTQPASVSGSPGQSITISCTGTSSDVGGYNYVSWYQQHPGKAPKLLIYEVSNRPSGVSNRFSGSKSGSTASLTISGLQAEDEADYYCSSYTSTSVVFGGGTKLTVLG |
| – | – | – | 207 | 1.16 | 138 | VG9B86 (antibody, human IgG1, kappa, V domains shown) VH: QVQLQESGPGLVKPSETLSLTCTVSGDSISSSYWSWIRQPAGKGLECIGRFYSSGSTSYNPSLKSRVTMAIDTSKNQFSLKLTSVTAADTAVYYCARYSGSYWYFDLWGRGTTVTVSS VL: EIVLTQSPATLSLSPGERATLSCRASQSVSSYLAWYQQRPGQAPRLLIYDTSNRATGIPARFSGSGSGTDFTLTISSLAPEDFAVYYCQQRSDWLLTFGGGTKVEIKR |
| 42.2 | 77 | 1.17 | – | – | – | VG9B81 (antibody, human IgG1, kappa, V domains shown) VH: QVQLQESGPGLVKPSETLSLTCSVSGGSINTYYWSWFRQPAGKGLELIGRIYTSDNTNYNPSLKSRVTMSVDTSKNQFSLKLSSVTAADTAVYYCARYNWNYWYFDLWGRGTLVTVSS VL: DIQMTQSPSFLSASVRDRVNITCRASQGISSYLAWYQQKPGKAPKLLIYTASTLQSGVPSRFSGSGSGTEFTLTISSLQPEDFATYYCQHLNSYPYTFGQGTKVEIKR |
| – | – | – | 205 | 2.74 | 152 | VG9B201 (antibody, human IgG1, lambda, V domains shown) VH: QVTLKESGPTLVKPTQTLTLTCTFSGFSLTTHGVGVGWIRQPPRKALEWLALIYWNADKHYSPSLKSRLTITKDTSKNQVVLTMTHMDPVDTATYYCAHEGDWGHYFDFWGQGTLVTVSS VL: QLVLTQPPSVSAAPGQKVTISCSGSSSNIGNNDVSWYQQLPGTAPKLLIYDNNRRPSGIPDRFSGSKSGTSATLGITGLQTGDEADYYCETWDSSLSAIWVFGGGTKVTVLG |
